Data on one molecule can be found in US20190183976A1.

The target of this experiment is T1, CXCR4-VC (human), P61073.
T1 chain: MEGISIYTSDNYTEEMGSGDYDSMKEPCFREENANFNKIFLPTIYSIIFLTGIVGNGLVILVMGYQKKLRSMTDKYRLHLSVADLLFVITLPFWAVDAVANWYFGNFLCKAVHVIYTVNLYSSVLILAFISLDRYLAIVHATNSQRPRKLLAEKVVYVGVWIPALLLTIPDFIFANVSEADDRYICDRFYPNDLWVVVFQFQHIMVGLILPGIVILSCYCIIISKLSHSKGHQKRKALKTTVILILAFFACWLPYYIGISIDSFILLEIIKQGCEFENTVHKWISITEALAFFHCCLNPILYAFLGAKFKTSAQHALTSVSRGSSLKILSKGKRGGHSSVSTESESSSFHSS
In words: BiFC, U-2 OS cells; score=(positive cells/total cells)x100. To be noted: remark: other sources report otherwise.

B1: CXCR4-VN, P61073 1-352 (receptor, human, UniProt P61073 1-352, looked up, not shown: small tags and cut ends)
chain: MEGISIYTSDNYTEEMGSGDYDSMKEPCFREENANFNKIFLPTIYSIIFLTGIVGNGLVILVMGYQKKLRSMTDKYRLHLSVADLLFVITLPFWAVDAVANWYFGNFLCKAVHVIYTVNLYSSVLILAFISLDRYLAIVHATNSQRPRKLLAEKVVYVGVWIPALLLTIPDFIFANVSEADDRYICDRFYPNDLWVVVFQFQHIMVGLILPGIVILSCYCIIISKLSHSKGHQKRKALKTTVILILAFFACWLPYYIGISIDSFILLEIIKQGCEFENTVHKWISITEALAFFHCCLNPILYAFLGAKFKTSAQHALTSVSRGSSLKILSKGKRGGHSSVSTESESSSFHSS
B1 yielded a BiFC score of 9.9.
